Patent US20030082150A1

Assays:
[1] = molecular target: HLA.A1 molecule on cells that do not express the antigen MAGE-1 (infected with control adenovirus Ad-βgal) (human); experiment: cell-based or functional assay
[2] = molecular target: Mage-1 antigenic nonapeptide presented by the HLA.A1 molecule on cells (human) (UniProt P43355); experiment: cell-based or functional assay

How did the % lysis, 51Cr release 4 h, E/T 0.1, C1R infected Ad β gal (500 pfu/cell) [1] turn out when “T cell receptor of the anti-Mage-1 CTL clone 82:30 (TCR)” was run?
Its % lysis, 51Cr release 4 h, E/T 0.1, C1R infected Ad β gal (500 pfu/cell) is 2%.

And the % lysis, 51Cr release 4 h, E/T 0.1, Gerlach E- infected Ad β gal (500 pfu/cell) [1]?
The % lysis, 51Cr release 4 h, E/T 0.1, Gerlach E- infected Ad β gal (500 pfu/cell) was 2%.

What about the % lysis, 51Cr release 4 h, E/T 0.3, C1R infected Ad β gal (500 pfu/cell) [1] of the same sequence?
Its % lysis, 51Cr release 4 h, E/T 0.3, C1R infected Ad β gal (500 pfu/cell) is 1%.

What about the % lysis, 51Cr release 4 h, E/T 0.3, Gerlach E- infected Ad β gal (500 pfu/cell) [1] of the same sequence?
Its % lysis, 51Cr release 4 h, E/T 0.3, Gerlach E- infected Ad β gal (500 pfu/cell) is 0%.

And the % lysis, 51Cr release 4 h, E/T 1, C1R infected Ad β gal (500 pfu/cell) [1]?
Its % lysis, 51Cr release 4 h, E/T 1, C1R infected Ad β gal (500 pfu/cell) is 3%.

What about the % lysis, 51Cr release 4 h, E/T 1, Gerlach E- infected Ad β gal (500 pfu/cell) [1] of the same sequence?
The % lysis, 51Cr release 4 h, E/T 1, Gerlach E- infected Ad β gal (500 pfu/cell) was 0%.

And the % lysis, 51Cr release 4 h, E/T 3, C1R infected Ad β gal (500 pfu/cell) [1]?
Its % lysis, 51Cr release 4 h, E/T 3, C1R infected Ad β gal (500 pfu/cell) is 4%.

What about the % lysis, 51Cr release 4 h, E/T 3, Gerlach E- infected Ad β gal (500 pfu/cell) [1] of the same sequence?
Its % lysis, 51Cr release 4 h, E/T 3, Gerlach E- infected Ad β gal (500 pfu/cell) is 0%.

And the % lysis, 51Cr release 4 h, E/T 10, C1R infected Ad β gal (500 pfu/cell) [1]?
The % lysis, 51Cr release 4 h, E/T 10, C1R infected Ad β gal (500 pfu/cell) was 2%.

What about the % lysis, 51Cr release 4 h, E/T 10, Gerlach E- infected Ad β gal (500 pfu/cell) [1] of the same sequence?
Its % lysis, 51Cr release 4 h, E/T 10, Gerlach E- infected Ad β gal (500 pfu/cell) is 0%.

What about the % lysis, 51Cr release 4 h, E/T 30, C1R infected Ad β gal (500 pfu/cell) [1] of the same sequence?
Its % lysis, 51Cr release 4 h, E/T 30, C1R infected Ad β gal (500 pfu/cell) is 3%.

What about the % lysis, 51Cr release 4 h, E/T 30, Gerlach E- infected Ad β gal (500 pfu/cell) [1] of the same sequence?
Its % lysis, 51Cr release 4 h, E/T 30, Gerlach E- infected Ad β gal (500 pfu/cell) is 0%.

What about the TNF produced by the CTL clone, +CTL, Gerlach E- infected with Ad. βgal, 50 pfu/cell [1] of the same sequence?
Its TNF produced by the CTL clone, +CTL, Gerlach E- infected with Ad. βgal, 50 pfu/cell is 0 pg TNF.

And the TNF produced by the CTL clone, +CTL, Gerlach E- infected with Ad. βgal, 100 pfu/cell [1]?
Its TNF produced by the CTL clone, +CTL, Gerlach E- infected with Ad. βgal, 100 pfu/cell is 0 pg TNF.

What about the % lysis, 51Cr release 4 h, E/T 0.1, C1R infected Ad Mage-1 (500 pfu/cell) [2] of the same sequence?
Its % lysis, 51Cr release 4 h, E/T 0.1, C1R infected Ad Mage-1 (500 pfu/cell) is 28%.

And the % lysis, 51Cr release 4 h, E/T 0.1, C1R transfected with Mage-1 [2]?
Its % lysis, 51Cr release 4 h, E/T 0.1, C1R transfected with Mage-1 is 19%.

And the % lysis, 51Cr release 4 h, E/T 0.1, Gerlach E- infected Ad Mage-1 (500 pfu/cell) [2]?
Its % lysis, 51Cr release 4 h, E/T 0.1, Gerlach E- infected Ad Mage-1 (500 pfu/cell) is 2%.

And the % lysis, 51Cr release 4 h, E/T 0.3, C1R infected Ad Mage-1 (500 pfu/cell) [2]?
The % lysis, 51Cr release 4 h, E/T 0.3, C1R infected Ad Mage-1 (500 pfu/cell) was 44%.

What about the % lysis, 51Cr release 4 h, E/T 0.3, C1R transfected with Mage-1 [2] of the same sequence?
Its % lysis, 51Cr release 4 h, E/T 0.3, C1R transfected with Mage-1 is 25%.

And the % lysis, 51Cr release 4 h, E/T 0.3, Gerlach E- infected Ad Mage-1 (500 pfu/cell) [2]?
The % lysis, 51Cr release 4 h, E/T 0.3, Gerlach E- infected Ad Mage-1 (500 pfu/cell) was 5%.

What about the % lysis, 51Cr release 4 h, E/T 1, C1R infected Ad Mage-1 (500 pfu/cell) [2] of the same sequence?
The % lysis, 51Cr release 4 h, E/T 1, C1R infected Ad Mage-1 (500 pfu/cell) was 44%.

And the % lysis, 51Cr release 4 h, E/T 1, C1R transfected with Mage-1 [2]?
The % lysis, 51Cr release 4 h, E/T 1, C1R transfected with Mage-1 was 30%.

And the % lysis, 51Cr release 4 h, E/T 1, Gerlach E- infected Ad Mage-1 (500 pfu/cell) [2]?
The % lysis, 51Cr release 4 h, E/T 1, Gerlach E- infected Ad Mage-1 (500 pfu/cell) was 6%.

And the % lysis, 51Cr release 4 h, E/T 3, C1R infected Ad Mage-1 (500 pfu/cell) [2]?
Its % lysis, 51Cr release 4 h, E/T 3, C1R infected Ad Mage-1 (500 pfu/cell) is 61%.

What about the % lysis, 51Cr release 4 h, E/T 3, C1R transfected with Mage-1 [2] of the same sequence?
Its % lysis, 51Cr release 4 h, E/T 3, C1R transfected with Mage-1 is 45%.

What about the % lysis, 51Cr release 4 h, E/T 3, Gerlach E- infected Ad Mage-1 (500 pfu/cell) [2] of the same sequence?
Its % lysis, 51Cr release 4 h, E/T 3, Gerlach E- infected Ad Mage-1 (500 pfu/cell) is 13%.

What about the % lysis, 51Cr release 4 h, E/T 10, C1R infected Ad Mage-1 (500 pfu/cell) [2] of the same sequence?
The % lysis, 51Cr release 4 h, E/T 10, C1R infected Ad Mage-1 (500 pfu/cell) was 59%.

And the % lysis, 51Cr release 4 h, E/T 10, C1R transfected with Mage-1 [2]?
Its % lysis, 51Cr release 4 h, E/T 10, C1R transfected with Mage-1 is 40%.

And the % lysis, 51Cr release 4 h, E/T 10, Gerlach E- infected Ad Mage-1 (500 pfu/cell) [2]?
Its % lysis, 51Cr release 4 h, E/T 10, Gerlach E- infected Ad Mage-1 (500 pfu/cell) is 15%.

What about the % lysis, 51Cr release 4 h, E/T 30, C1R infected Ad Mage-1 (500 pfu/cell) [2] of the same sequence?
Its % lysis, 51Cr release 4 h, E/T 30, C1R infected Ad Mage-1 (500 pfu/cell) is 62%.

What about the % lysis, 51Cr release 4 h, E/T 30, C1R transfected with Mage-1 [2] of the same sequence?
Its % lysis, 51Cr release 4 h, E/T 30, C1R transfected with Mage-1 is 33%.

What about the % lysis, 51Cr release 4 h, E/T 30, Gerlach E- infected Ad Mage-1 (500 pfu/cell) [2] of the same sequence?
Its % lysis, 51Cr release 4 h, E/T 30, Gerlach E- infected Ad Mage-1 (500 pfu/cell) is 15%.

What about the TNF produced by the CTL clone, +CTL, Gerlach E+ (HLA A1+) (Mage 1+) [2] of the same sequence?
The TNF produced by the CTL clone, +CTL, Gerlach E+ (HLA A1+) (Mage 1+) was 45 pg TNF.

And the TNF produced by the CTL clone, +CTL, Gerlach E- infected with Ad. Mage 1, 50 pfu/cell [2]?
Its TNF produced by the CTL clone, +CTL, Gerlach E- infected with Ad. Mage 1, 50 pfu/cell is 4 pg TNF.

And the TNF produced by the CTL clone, +CTL, Gerlach E- infected with Ad. Mage 1, 100 pfu/cell [2]?
The TNF produced by the CTL clone, +CTL, Gerlach E- infected with Ad. Mage 1, 100 pfu/cell was 12 pg TNF.

What about the optical density (MTT, WEHI-164-13 viability) of 24 h supernatant, +CTL, Gerlach E+ (HLA A1+) (Mage 1+) (optical density) [2] of the same sequence?
The optical density (MTT, WEHI-164-13 viability) of 24 h supernatant, +CTL, Gerlach E+ (HLA A1+) (Mage 1+) (optical density) was 0.17.

What about the optical density (MTT, WEHI-164-13 viability) of 24 h supernatant, +CTL, Gerlach E- infected with Ad. Mage 1, 50 pfu/cell (optical density) [2] of the same sequence?
The optical density (MTT, WEHI-164-13 viability) of 24 h supernatant, +CTL, Gerlach E- infected with Ad. Mage 1, 50 pfu/cell (optical density) was 0.58.

What about the optical density (MTT, WEHI-164-13 viability) of 24 h supernatant, +CTL, Gerlach E- infected with Ad. Mage 1, 100 pfu/cell (optical density) [2] of the same sequence?
Its optical density (MTT, WEHI-164-13 viability) of 24 h supernatant, +CTL, Gerlach E- infected with Ad. Mage 1, 100 pfu/cell (optical density) is 0.355.
